The values below come from patent publication US20100184697A1 (U S OF AMERICA AS REPRESENTED BY THE SECRETAR, published 2010).

Square brackets hold non-standard residues; d marks the D form. Ends that are not written are not given here. Nle = CCCC[C@H](N)C(=O)O; Dab = NCC[C@H](N)C(=O)O

First the molecules themselves.
B1: Hel2-Pen (peptide)
peptide: LDTRYLEQLHQLYSRQIKIWFPNRR[Nle]KWKK-NH2
modifications: N-terminus assumed
SMILES: CCCC[C@H](NC(=O)[C@H](CCCNC(=N)N)NC(=O)[C@H](CCCNC(=N)N)NC(=O)[C@H](CC(N)=O)NC(=O)[C@@H]1CCCN1C(=O)[C@H](Cc1ccccc1)NC(=O)[C@H](Cc1c[nH]c2ccccc12)NC(=O)[C@@H](NC(=O)[C@H](CCCCN)NC(=O)[C@@H](NC(=O)[C@H](CCC(N)=O)NC(=O)[C@H](CCCNC(=N)N)NC(=O)[C@H](CO)NC(=O)[C@H](Cc1ccc(O)cc1)NC(=O)[C@H](CC(C)C)NC(=O)[C@H](CCC(N)=O)NC(=O)[C@H](Cc1c[nH]cn1)NC(=O)[C@H](CC(C)C)NC(=O)[C@H](CCC(N)=O)NC(=O)[C@H](CCC(=O)O)NC(=O)[C@H](CC(C)C)NC(=O)[C@H](Cc1ccc(O)cc1)NC(=O)[C@H](CCCNC(=N)N)NC(=O)[C@@H](NC(=O)[C@H](CC(=O)O)NC(=O)[C@@H](N)CC(C)C)[C@@H](C)O)[C@@H](C)CC)[C@@H](C)CC)C(=O)N[C@@H](CCCCN)C(=O)N[C@@H](Cc1c[nH]c2ccccc12)C(=O)N[C@@H](CCCCN)C(=O)N[C@@H](CCCCN)C(N)=O
B2: Hel2I-Pen (peptide)
peptide: DTRYLEQLH[Dab]LYRQIKIWFPNRR[Nle]KWKK-NH2
modifications: N-terminus assumed
SMILES: CCCC[C@H](NC(=O)[C@H](CCCNC(=N)N)NC(=O)[C@H](CCCNC(=N)N)NC(=O)[C@H](CC(N)=O)NC(=O)[C@@H]1CCCN1C(=O)[C@H](Cc1ccccc1)NC(=O)[C@H](Cc1c[nH]c2ccccc12)NC(=O)[C@@H](NC(=O)[C@H](CCCCN)NC(=O)[C@@H](NC(=O)[C@H](CCC(N)=O)NC(=O)[C@H](CCCNC(=N)N)NC(=O)[C@H](Cc1ccc(O)cc1)NC(=O)[C@H](CC(C)C)NC(=O)[C@H](CCN)NC(=O)[C@H](Cc1c[nH]cn1)NC(=O)[C@H](CC(C)C)NC(=O)[C@H](CCC(N)=O)NC(=O)[C@H](CCC(=O)O)NC(=O)[C@H](CC(C)C)NC(=O)[C@H](Cc1ccc(O)cc1)NC(=O)[C@H](CCCNC(=N)N)NC(=O)[C@@H](NC(=O)[C@@H](N)CC(=O)O)[C@@H](C)O)[C@@H](C)CC)[C@@H](C)CC)C(=O)N[C@@H](CCCCN)C(=O)N[C@@H](Cc1c[nH]c2ccccc12)C(=O)N[C@@H](CCCCN)C(=O)N[C@@H](CCCCN)C(N)=O
B3: Hel2H-Pen (peptide)
peptide: LDTRYLEQLH[Dab]LYRQIKIWFPNRR[Nle]KWKK-NH2
modifications: N-terminus assumed
SMILES: CCCC[C@H](NC(=O)[C@H](CCCNC(=N)N)NC(=O)[C@H](CCCNC(=N)N)NC(=O)[C@H](CC(N)=O)NC(=O)[C@@H]1CCCN1C(=O)[C@H](Cc1ccccc1)NC(=O)[C@H](Cc1c[nH]c2ccccc12)NC(=O)[C@@H](NC(=O)[C@H](CCCCN)NC(=O)[C@@H](NC(=O)[C@H](CCC(N)=O)NC(=O)[C@H](CCCNC(=N)N)NC(=O)[C@H](Cc1ccc(O)cc1)NC(=O)[C@H](CC(C)C)NC(=O)[C@H](CCN)NC(=O)[C@H](Cc1c[nH]cn1)NC(=O)[C@H](CC(C)C)NC(=O)[C@H](CCC(N)=O)NC(=O)[C@H](CCC(=O)O)NC(=O)[C@H](CC(C)C)NC(=O)[C@H](Cc1ccc(O)cc1)NC(=O)[C@H](CCCNC(=N)N)NC(=O)[C@@H](NC(=O)[C@H](CC(=O)O)NC(=O)[C@@H](N)CC(C)C)[C@@H](C)O)[C@@H](C)CC)[C@@H](C)CC)C(=O)N[C@@H](CCCCN)C(=O)N[C@@H](Cc1c[nH]c2ccccc12)C(=O)N[C@@H](CCCCN)C(=O)N[C@@H](CCCCN)C(N)=O
B4: Hel2A-Pen (peptide)
peptide: DTRYLEQLHKLYSRQIKIWFPNRR[Nle]KWKK-NH2
modifications: N-terminus assumed
SMILES: CCCC[C@H](NC(=O)[C@H](CCCNC(=N)N)NC(=O)[C@H](CCCNC(=N)N)NC(=O)[C@H](CC(N)=O)NC(=O)[C@@H]1CCCN1C(=O)[C@H](Cc1ccccc1)NC(=O)[C@H](Cc1c[nH]c2ccccc12)NC(=O)[C@@H](NC(=O)[C@H](CCCCN)NC(=O)[C@@H](NC(=O)[C@H](CCC(N)=O)NC(=O)[C@H](CCCNC(=N)N)NC(=O)[C@H](CO)NC(=O)[C@H](Cc1ccc(O)cc1)NC(=O)[C@H](CC(C)C)NC(=O)[C@H](CCCCN)NC(=O)[C@H](Cc1c[nH]cn1)NC(=O)[C@H](CC(C)C)NC(=O)[C@H](CCC(N)=O)NC(=O)[C@H](CCC(=O)O)NC(=O)[C@H](CC(C)C)NC(=O)[C@H](Cc1ccc(O)cc1)NC(=O)[C@H](CCCNC(=N)N)NC(=O)[C@@H](NC(=O)[C@@H](N)CC(=O)O)[C@@H](C)O)[C@@H](C)CC)[C@@H](C)CC)C(=O)N[C@@H](CCCCN)C(=O)N[C@@H](Cc1c[nH]c2ccccc12)C(=O)N[C@@H](CCCCN)C(=O)N[C@@H](CCCCN)C(N)=O
B5: Hel2A-2-Pen (peptide)
peptide: LDTRYLEQLHKLYRQIKIWFPNRR[Nle]KWKK-NH2
modifications: N-terminus assumed
SMILES: CCCC[C@H](NC(=O)[C@H](CCCNC(=N)N)NC(=O)[C@H](CCCNC(=N)N)NC(=O)[C@H](CC(N)=O)NC(=O)[C@@H]1CCCN1C(=O)[C@H](Cc1ccccc1)NC(=O)[C@H](Cc1c[nH]c2ccccc12)NC(=O)[C@@H](NC(=O)[C@H](CCCCN)NC(=O)[C@@H](NC(=O)[C@H](CCC(N)=O)NC(=O)[C@H](CCCNC(=N)N)NC(=O)[C@H](Cc1ccc(O)cc1)NC(=O)[C@H](CC(C)C)NC(=O)[C@H](CCCCN)NC(=O)[C@H](Cc1c[nH]cn1)NC(=O)[C@H](CC(C)C)NC(=O)[C@H](CCC(N)=O)NC(=O)[C@H](CCC(=O)O)NC(=O)[C@H](CC(C)C)NC(=O)[C@H](Cc1ccc(O)cc1)NC(=O)[C@H](CCCNC(=N)N)NC(=O)[C@@H](NC(=O)[C@H](CC(=O)O)NC(=O)[C@@H](N)CC(C)C)[C@@H](C)O)[C@@H](C)CC)[C@@H](C)CC)C(=O)N[C@@H](CCCCN)C(=O)N[C@@H](Cc1c[nH]c2ccccc12)C(=O)N[C@@H](CCCCN)C(=O)N[C@@H](CCCCN)C(N)=O
B6: Hel2B-Pen (peptide)
peptide: LDTRYLEQLHKLYSRQIKIWFPNRR[Nle]KWKK-NH2
modifications: N-terminus assumed
SMILES: CCCC[C@H](NC(=O)[C@H](CCCNC(=N)N)NC(=O)[C@H](CCCNC(=N)N)NC(=O)[C@H](CC(N)=O)NC(=O)[C@@H]1CCCN1C(=O)[C@H](Cc1ccccc1)NC(=O)[C@H](Cc1c[nH]c2ccccc12)NC(=O)[C@@H](NC(=O)[C@H](CCCCN)NC(=O)[C@@H](NC(=O)[C@H](CCC(N)=O)NC(=O)[C@H](CCCNC(=N)N)NC(=O)[C@H](CO)NC(=O)[C@H](Cc1ccc(O)cc1)NC(=O)[C@H](CC(C)C)NC(=O)[C@H](CCCCN)NC(=O)[C@H](Cc1c[nH]cn1)NC(=O)[C@H](CC(C)C)NC(=O)[C@H](CCC(N)=O)NC(=O)[C@H](CCC(=O)O)NC(=O)[C@H](CC(C)C)NC(=O)[C@H](Cc1ccc(O)cc1)NC(=O)[C@H](CCCNC(=N)N)NC(=O)[C@@H](NC(=O)[C@H](CC(=O)O)NC(=O)[C@@H](N)CC(C)C)[C@@H](C)O)[C@@H](C)CC)[C@@H](C)CC)C(=O)N[C@@H](CCCCN)C(=O)N[C@@H](Cc1c[nH]c2ccccc12)C(=O)N[C@@H](CCCCN)C(=O)N[C@@H](CCCCN)C(N)=O
B7: Hel2A-3-Pen (peptide)
peptide: Ac-DTRYLEQLHALYRQIKIWFPNRR[Nle]KWKK-NH2
SMILES: CCCC[C@H](NC(=O)[C@H](CCCNC(=N)N)NC(=O)[C@H](CCCNC(=N)N)NC(=O)[C@H](CC(N)=O)NC(=O)[C@@H]1CCCN1C(=O)[C@H](Cc1ccccc1)NC(=O)[C@H](Cc1c[nH]c2ccccc12)NC(=O)[C@@H](NC(=O)[C@H](CCCCN)NC(=O)[C@@H](NC(=O)[C@H](CCC(N)=O)NC(=O)[C@H](CCCNC(=N)N)NC(=O)[C@H](Cc1ccc(O)cc1)NC(=O)[C@H](CC(C)C)NC(=O)[C@H](C)NC(=O)[C@H](Cc1c[nH]cn1)NC(=O)[C@H](CC(C)C)NC(=O)[C@H](CCC(N)=O)NC(=O)[C@H](CCC(=O)O)NC(=O)[C@H](CC(C)C)NC(=O)[C@H](Cc1ccc(O)cc1)NC(=O)[C@H](CCCNC(=N)N)NC(=O)[C@@H](NC(=O)[C@H](CC(=O)O)NC(C)=O)[C@@H](C)O)[C@@H](C)CC)[C@@H](C)CC)C(=O)N[C@@H](CCCCN)C(=O)N[C@@H](Cc1c[nH]c2ccccc12)C(=O)N[C@@H](CCCCN)C(=O)N[C@@H](CCCCN)C(N)=O

The target of this test is STAT3 (human, UniProt P40763 2-770, limits assumed). The experiment in a line: cell-based or functional assay.
Sequence of STAT3 (P40763 2-770 limits assumed): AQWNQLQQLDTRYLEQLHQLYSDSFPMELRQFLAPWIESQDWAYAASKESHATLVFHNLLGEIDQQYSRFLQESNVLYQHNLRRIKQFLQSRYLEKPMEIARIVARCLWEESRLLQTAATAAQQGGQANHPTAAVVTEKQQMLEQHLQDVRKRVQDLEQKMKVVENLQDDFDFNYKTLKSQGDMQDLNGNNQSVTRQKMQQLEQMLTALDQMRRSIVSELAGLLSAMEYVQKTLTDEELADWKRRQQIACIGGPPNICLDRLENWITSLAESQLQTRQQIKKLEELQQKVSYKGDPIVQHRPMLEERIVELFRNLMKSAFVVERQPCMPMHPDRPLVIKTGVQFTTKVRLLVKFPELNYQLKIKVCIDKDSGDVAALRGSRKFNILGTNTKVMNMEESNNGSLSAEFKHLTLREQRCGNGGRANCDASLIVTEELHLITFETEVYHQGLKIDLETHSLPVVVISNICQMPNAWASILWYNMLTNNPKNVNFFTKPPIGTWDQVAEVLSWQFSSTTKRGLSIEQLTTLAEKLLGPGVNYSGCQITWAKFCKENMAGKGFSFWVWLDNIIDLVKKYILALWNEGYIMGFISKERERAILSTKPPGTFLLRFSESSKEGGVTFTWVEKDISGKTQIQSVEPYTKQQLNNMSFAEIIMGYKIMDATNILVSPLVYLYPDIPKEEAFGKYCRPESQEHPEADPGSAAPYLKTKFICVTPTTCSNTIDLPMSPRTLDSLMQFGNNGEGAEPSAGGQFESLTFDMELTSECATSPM
B1: the “Activity, % of control (luciferase reporter, GAS or STAT3 element, MCF-7 cells)” value (“Activity, % of control” below) was 56 % of control.

Take B2: the “Activity, % of control” value was 53 % of control.

As to B3, the “Activity, % of control” value is 43 % of control.

On to B4, for which the “Activity, % of control” value was 100 % of control.

As to B5, the “Activity, % of control” value is 71 % of control.

B6: the “Activity, % of control” value is 100 % of control.

As for B7, the “Activity, % of control” value was 89 % of control.
